This is an account of results in the RNAGym collection of RNA variant scans (doi:10.7554/elife.80360).

First the molecules themselves.
B1: Twister Ribozyme (parent)
chain: AACACUGCCAAUGCCGGUCCCAAGCCCGGAUAAAAGUGGAGGGGGCGG

In the series the parent is B1. In words: self-cleavage, relative activity (ratio to wild type); higher = more cleavage; co-transcriptional.
With G13C G17C, the self-cleavage was determined as 0.0805.

Regarding U6A G13C, the self-cleavage came to 0.072.

U6A G13A: the self-cleavage was 0.195.

On to A10C G47C, for which the self-cleavage worked out at 0.538.

As for C21G U31G, the self-cleavage is 0.0712.

In the case of A4C C9G, the self-cleavage is 0.107.

Take A4G A11C: the self-cleavage is 0.663.

As for A2G G7A, the self-cleavage came to 0.07.

In the case of A4G A30U, the self-cleavage is 0.762.

C20A A34G: the self-cleavage turned out to be 0.104.

For G16A G38U, the self-cleavage was found to be 0.656.

With C21U G43U, the self-cleavage is 0.106.

G16C G24C: the self-cleavage amounted to 0.0655.

With U6C G43A, the self-cleavage came to 0.0844.

With G16C G28A, the self-cleavage is 0.194.

Consider C9A C20G, for which the self-cleavage is 0.0801.

In the case of C21U G41A, the self-cleavage came to 0.641.

For the variant C20A G47C, the self-cleavage was found to be 0.108.

As for C20G U31A, the self-cleavage came to 0.103.

In the case of A1C C27A, the self-cleavage was 0.192.

With A32U A40G, the self-cleavage is 0.108.

Consider U6C C46A, for which the self-cleavage worked out at 0.65.

As to A1C C14G, the self-cleavage is 0.124.

Consider G24C C25U, for which the self-cleavage is 0.114.

For the variant C21G A35C, the self-cleavage was determined as 0.0454.

As for C46G G47U, the self-cleavage amounted to 0.728.

Take G29C C46A: the self-cleavage is 0.708.

Regarding A33U A35C, the self-cleavage was found to be 0.961.

For G16U G29A, the self-cleavage worked out at 0.946.

Turning to A33C G43U, the self-cleavage is 0.297.

For A4C C8A, the self-cleavage amounted to 0.119.

Regarding G13A C46G, the self-cleavage amounted to 0.848.

With C14G A34C, the self-cleavage was found to be 0.0831.

For the variant C19G A34C, the self-cleavage was 0.0815.

As to A10C G38A, the self-cleavage was found to be 0.947.

Regarding C5A U6G, the self-cleavage worked out at 0.154.

On to C20U A32C, for which the self-cleavage stood at 0.758.

For C20U A32G, the self-cleavage was determined as 0.82.

On to G43U G47C, for which the self-cleavage amounted to 0.177.

With U6C G47U, the self-cleavage amounted to 0.575.

Consider U18G G48A, for which the self-cleavage stood at 0.0606.

Take C3A G29A: the self-cleavage came out at 0.232.

On to C3A A10U, for which the self-cleavage was determined as 0.0843.

Regarding A1C G17A, the self-cleavage is 0.172.

Take C26A A30G: the self-cleavage came out at 0.348.

A4C A34G: the self-cleavage was 0.0947.

Turning to A22U G29U, the self-cleavage was found to be 0.66.

With U18A G39A, the self-cleavage came out at 0.104.

Regarding C5G C9A, the self-cleavage amounted to 0.167.

In the case of U18A U37G, the self-cleavage was 0.137.

For A4G C21U, the self-cleavage came out at 0.118.

C3A C21U: the self-cleavage was determined as 0.0858.

Take A30U G44U: the self-cleavage was determined as 0.973.

Regarding G7A A10C, the self-cleavage was found to be 0.459.

With A2C C9A, the self-cleavage stood at 0.0489.

For U18G A34G, the self-cleavage amounted to 0.079.

Take C9G G17U: the self-cleavage turned out to be 0.0981.

Take A2U C8A: the self-cleavage is 0.078.

Turning to A10G G13U, the self-cleavage came out at 0.79.

On to A2C A34U, for which the self-cleavage stood at 0.0746.

Regarding G29A G48C, the self-cleavage worked out at 1.1.

With U37G, the self-cleavage turned out to be 0.861.

On to C5G C26A, for which the self-cleavage is 0.126.

As for G16C A35C, the self-cleavage was 0.394.

As to C15U A33G, the self-cleavage amounted to 0.802.

Regarding C15A G48C, the self-cleavage is 0.715.

In the case of G36U G38C, the self-cleavage turned out to be 0.286.

Regarding G24A A33G, the self-cleavage stood at 0.097.

Consider A1C G38C, for which the self-cleavage is 0.22.

For the variant G16U C21G, the self-cleavage is 0.101.

A35G G43C: the self-cleavage stood at 0.16.

As to A30U A35C, the self-cleavage came to 1.07.

U12A C14U: the self-cleavage was determined as 1.05.

With C8U G43U, the self-cleavage was found to be 0.131.

Regarding A2C G38A, the self-cleavage is 0.102.

For the variant C26U A33G, the self-cleavage was 0.17.

On to A32G, for which the self-cleavage was 0.961.

Consider A23U C25G, for which the self-cleavage was determined as 0.0583.

A22U C26A: the self-cleavage was determined as 0.11.

Take A30U G38U: the self-cleavage came out at 0.957.

A11C A40G: the self-cleavage was found to be 0.12.

With C20G A34G, the self-cleavage was determined as 0.0924.

On to C25G G48C, for which the self-cleavage amounted to 0.167.

As for C20G C46A, the self-cleavage is 0.12.

Regarding U6C C25U, the self-cleavage was found to be 0.184.

As for C3G G16A, the self-cleavage amounted to 0.271.

Take A35G G41A: the self-cleavage stood at 0.246.

For C27G G42U, the self-cleavage was 0.0711.

On to A1U A32G, for which the self-cleavage amounted to 0.0499.

For G42U G48U, the self-cleavage is 0.451.

A35U U37A: the self-cleavage was determined as 0.834.

Turning to G42C G48U, the self-cleavage was found to be 0.561.

On to G16C G45U, for which the self-cleavage worked out at 0.379.

As to C9A G28U, the self-cleavage came to 0.53.

For G7C G36C, the self-cleavage was found to be 0.0549.

On to C15G C25A, for which the self-cleavage stood at 0.0585.

C26A A34C: the self-cleavage came out at 0.0918.

In the case of G24C A34C, the self-cleavage worked out at 0.0955.

As for A1C G29C, the self-cleavage is 0.231.

C14U A34C: the self-cleavage came to 0.461.

In the case of G7A G43A, the self-cleavage was determined as 0.176.

Consider C8G G41C, for which the self-cleavage stood at 0.122.

For A11C A23C, the self-cleavage is 0.0766.

On to C5G A33U, for which the self-cleavage came out at 0.662.

Take G39C G43C: the self-cleavage came to 0.0898.

For G45A C46G, the self-cleavage is 0.856.

For A11G C27U, the self-cleavage is 0.405.

Regarding C9G G41U, the self-cleavage worked out at 0.122.

With U12A G41C, the self-cleavage stood at 0.264.

For U12C G48C, the self-cleavage was found to be 1.18.

Consider U12C G48U, for which the self-cleavage turned out to be 1.03.

For G13U G48C, the self-cleavage came to 0.456.

With C14G G28A, the self-cleavage is 0.162.

Consider U18G G47C, for which the self-cleavage came out at 0.0806.

Take C15A C26G: the self-cleavage came out at 0.108.

For C21A G39C, the self-cleavage came to 0.116.

Regarding A40G G42A, the self-cleavage was determined as 0.113.

Turning to A40G G42C, the self-cleavage is 0.215.

Regarding C26G A34C, the self-cleavage is 0.0761.

In the case of C25A U31G, the self-cleavage is 0.127.

Turning to A35C G45A, the self-cleavage was 0.807.

Consider G42A G47C, for which the self-cleavage is 0.241.

On to G29U A35U, for which the self-cleavage is 0.892.

As to U31G A32U, the self-cleavage turned out to be 0.765.

Take G16C G39C: the self-cleavage is 0.119.

On to C3A G16A, for which the self-cleavage was determined as 0.109.

With U18G A40G, the self-cleavage stood at 0.0494.

As for G44C C46A, the self-cleavage was 0.28.

C15G C46A: the self-cleavage came out at 0.0745.

G17C G44C: the self-cleavage turned out to be 0.122.

In the case of C14A U18C, the self-cleavage stood at 0.371.

In the case of A10G C15G, the self-cleavage is 0.136.

For the variant G7C A35C, the self-cleavage stood at 0.064.

Consider C5G G38A, for which the self-cleavage amounted to 0.298.

As for U6A U37C, the self-cleavage is 0.124.

A22C C46A: the self-cleavage was 1.02.

Regarding A4C G43C, the self-cleavage was 0.0981.

As to A2G G48A, the self-cleavage is 0.217.

In the case of C3U A35G, the self-cleavage worked out at 0.136.

As for A1G G36A, the self-cleavage was determined as 0.252.

Consider A22U C25U, for which the self-cleavage amounted to 0.513.

For A10U G24U, the self-cleavage was determined as 0.119.

On to G7C C15A, for which the self-cleavage was determined as 0.0454.

As to G28U G48C, the self-cleavage was found to be 0.921.

For U6A G28C, the self-cleavage was determined as 0.524.

On to G7A C19A, for which the self-cleavage was 0.0667.

Turning to U18C A35C, the self-cleavage amounted to 0.641.

On to C3G G29C, for which the self-cleavage is 0.236.

Consider C26A G42U, for which the self-cleavage was determined as 0.109.

With A4G C9A, the self-cleavage turned out to be 0.698.

Take C19U G28U: the self-cleavage came to 0.822.

In the case of C27U A35G, the self-cleavage came out at 0.271.

For the variant G41U C46G, the self-cleavage amounted to 0.509.

C26G G29C: the self-cleavage was found to be 0.134.

As to A10G C19U, the self-cleavage was 1.02.

For the variant C27U G42C, the self-cleavage was 0.19.

For C27U G42A, the self-cleavage was 0.184.

As for A4U G45A, the self-cleavage worked out at 0.105.

For G17A G39U, the self-cleavage turned out to be 0.165.

In the case of A2C C15A, the self-cleavage was found to be 0.051.

For G24U C25G, the self-cleavage was 0.104.

With A30G A32U, the self-cleavage was determined as 0.962.

Turning to U31A G36A, the self-cleavage was 0.614.

Consider C20G, for which the self-cleavage was found to be 0.169.

For the variant A33C U37G, the self-cleavage stood at 0.626.

Regarding A1C A4G, the self-cleavage is 0.131.

As for C25A G29C, the self-cleavage was determined as 0.0958.
